{"source": "paper PMC6853982", "molecular_target": "GFP-AtEH1/Pan1 (Arabidopsis) (UniProt Q9LM78)", "sequence (Q9LM78 entry or part of it)": "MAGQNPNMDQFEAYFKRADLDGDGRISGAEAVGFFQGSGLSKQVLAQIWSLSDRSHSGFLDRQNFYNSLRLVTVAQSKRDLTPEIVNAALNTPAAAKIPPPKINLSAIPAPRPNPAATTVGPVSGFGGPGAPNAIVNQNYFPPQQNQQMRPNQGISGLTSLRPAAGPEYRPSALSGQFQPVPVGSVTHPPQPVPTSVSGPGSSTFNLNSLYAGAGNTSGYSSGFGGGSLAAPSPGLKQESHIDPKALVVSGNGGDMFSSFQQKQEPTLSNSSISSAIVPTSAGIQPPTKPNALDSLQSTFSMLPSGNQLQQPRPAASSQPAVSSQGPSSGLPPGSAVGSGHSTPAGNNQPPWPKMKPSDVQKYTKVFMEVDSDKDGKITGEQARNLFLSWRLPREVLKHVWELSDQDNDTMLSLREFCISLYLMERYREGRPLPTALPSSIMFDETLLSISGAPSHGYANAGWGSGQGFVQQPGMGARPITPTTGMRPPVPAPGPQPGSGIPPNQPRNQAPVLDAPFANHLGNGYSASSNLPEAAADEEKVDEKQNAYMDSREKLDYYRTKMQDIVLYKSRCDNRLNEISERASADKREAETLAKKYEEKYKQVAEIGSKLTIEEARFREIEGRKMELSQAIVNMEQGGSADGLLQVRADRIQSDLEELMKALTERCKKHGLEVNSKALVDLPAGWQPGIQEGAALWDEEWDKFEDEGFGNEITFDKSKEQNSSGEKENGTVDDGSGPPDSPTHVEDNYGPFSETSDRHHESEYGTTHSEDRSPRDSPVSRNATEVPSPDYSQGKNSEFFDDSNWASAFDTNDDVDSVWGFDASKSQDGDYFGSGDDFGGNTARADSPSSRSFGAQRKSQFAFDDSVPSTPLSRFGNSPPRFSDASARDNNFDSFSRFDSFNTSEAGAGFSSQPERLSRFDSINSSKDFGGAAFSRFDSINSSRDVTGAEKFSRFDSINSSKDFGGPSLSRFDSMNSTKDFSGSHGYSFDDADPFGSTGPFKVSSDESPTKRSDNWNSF", "experiment": "FRET or BRET; FRET-FLIM in N. benthamiana leaf cells transiently co-expressing the GFP donor and RFP acceptor fusions; GFP-AtEH1/Pan1 alone as donor control; whole field images", "data": [{"substance": "RFP-AtEH2/Pan1 (natural protein)", "values": [{"measurement": "fluorescence life-time of the GFP donor in the presence of the RFP acceptor", "result": 2.45, "unit": "ns"}]}]}
